Reference: publication PMC5787697, “Transcriptome-wide identification of the RNA-binding landscape of the chromatin-associated protein PARP1 reveals functions in RNA biogenesis”

How the values were obtained:
PARP1-ΔCAT [1] = biological target: T1, PARP1-ΔCAT (human, UniProt P09874 1-662); test: competition EMSA; vs N1 in same reaction; 25 mM Tris pH 7.5, 75 mM NaCl, 50 mM arginine, 0.1 mM TCEP, 0.1 ug/ul BSA, room temperature 30 min; 0.05 uM probe, 0-2.5 uM protein; native 10% PAGE in TBE; details: protein: recombinant; tags: His; chain copies: 2; label: 32P; single strand
PARP1-FL [2] = biological target: T2, PARP1-FL (human, UniProt P09874 1-1014); test: as above; details: protein: recombinant; tags: His; label: 32P; single strand
PARP1-ΔZn1ΔZn2 [3] = biological target: T3, PARP1-ΔZn1ΔZn2 (human, UniProt P09874 216-1014); test: as above; details: protein: recombinant; tags: His; chain copies: 2; label: 32P; single strand
PARP1-ΔZn1ΔZn2 [4] = biological target: T3, PARP1-ΔZn1ΔZn2; test: EMSA; monomer-equivalent K, n=2.04±0.15; 25 mM Tris pH 7.5, 75 mM NaCl, 50 mM arginine, 0.1 mM TCEP, 0.1 ug/ul BSA, room temperature 30 min; 0.05 uM probe, 0-2.5 uM protein; native 10% PAGE in TBE; details: protein: recombinant; tags: His; chain copies: 2; label: 32P; single strand
PARP1-ΔCAT [5] = biological target: T1, PARP1-ΔCAT; test: EMSA; monomer-equivalent K, n=2.04±0.13; 25 mM Tris pH 7.5, 75 mM NaCl, 50 mM arginine, 0.1 mM TCEP, 0.1 ug/ul BSA, room temperature 30 min; 0.05 uM probe, 0-2.5 uM protein; native 10% PAGE in TBE; details: protein: recombinant; tags: His; chain copies: 2; label: 32P; single strand
PARP1-FL [6] = biological target: T2, PARP1-FL; test: EMSA; monomer-equivalent K, n=1.70±0.14; 25 mM Tris pH 7.5, 75 mM NaCl, 50 mM arginine, 0.1 mM TCEP, 0.1 ug/ul BSA, room temperature 30 min; 0.05 uM probe, 0-2.5 uM protein; native 10% PAGE in TBE; details: protein: recombinant; tags: His; chain copies: 2; label: 32P; single strand
PARP1-ΔCAT [7] = biological target: T1, PARP1-ΔCAT; test: EMSA; monomer-equivalent K, n=2.77±0.13; 25 mM Tris pH 7.5, 75 mM NaCl, 50 mM arginine, 0.1 mM TCEP, 0.1 ug/ul BSA, room temperature 30 min; 0.05 uM probe, 0-2.5 uM protein; native 10% PAGE in TBE; details: protein: recombinant; tags: His; chain copies: 2; label: 32P; single strand
PARP1-FL [8] = biological target: T2, PARP1-FL; test: EMSA; monomer-equivalent K, n=2.17±0.15; 25 mM Tris pH 7.5, 75 mM NaCl, 50 mM arginine, 0.1 mM TCEP, 0.1 ug/ul BSA, room temperature 30 min; 0.05 uM probe, 0-2.5 uM protein; native 10% PAGE in TBE; details: protein: recombinant; tags: His; chain copies: 2; label: 32P; single strand
PARP1-ΔZn1ΔZn2 [9] = biological target: T3, PARP1-ΔZn1ΔZn2; test: EMSA; monomer-equivalent K, n=2.16±0.19; 25 mM Tris pH 7.5, 75 mM NaCl, 50 mM arginine, 0.1 mM TCEP, 0.1 ug/ul BSA, room temperature 30 min; 0.05 uM probe, 0-2.5 uM protein; native 10% PAGE in TBE; details: protein: recombinant; tags: His; chain copies: 2; label: 32P; single strand

T1 sequence (P09874 1-662, stated change not applied): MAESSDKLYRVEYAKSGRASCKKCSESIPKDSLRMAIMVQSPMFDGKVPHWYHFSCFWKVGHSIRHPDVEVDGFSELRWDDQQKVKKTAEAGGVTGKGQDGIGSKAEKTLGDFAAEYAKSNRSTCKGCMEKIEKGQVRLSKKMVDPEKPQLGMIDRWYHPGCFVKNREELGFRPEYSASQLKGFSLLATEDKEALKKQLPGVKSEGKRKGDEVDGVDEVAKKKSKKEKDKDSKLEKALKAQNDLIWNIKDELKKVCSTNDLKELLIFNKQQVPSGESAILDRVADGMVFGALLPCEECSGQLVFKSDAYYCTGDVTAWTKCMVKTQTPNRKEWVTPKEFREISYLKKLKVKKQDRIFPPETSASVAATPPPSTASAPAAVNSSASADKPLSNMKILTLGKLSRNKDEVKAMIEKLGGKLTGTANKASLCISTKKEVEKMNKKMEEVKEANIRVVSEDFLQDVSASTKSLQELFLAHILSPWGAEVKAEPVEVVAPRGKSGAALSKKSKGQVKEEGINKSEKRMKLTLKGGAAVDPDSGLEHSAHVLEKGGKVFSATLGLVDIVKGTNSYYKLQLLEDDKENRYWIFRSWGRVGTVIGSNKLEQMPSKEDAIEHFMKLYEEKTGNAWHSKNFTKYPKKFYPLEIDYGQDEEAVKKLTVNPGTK
T2 sequence (P09874 whole entry): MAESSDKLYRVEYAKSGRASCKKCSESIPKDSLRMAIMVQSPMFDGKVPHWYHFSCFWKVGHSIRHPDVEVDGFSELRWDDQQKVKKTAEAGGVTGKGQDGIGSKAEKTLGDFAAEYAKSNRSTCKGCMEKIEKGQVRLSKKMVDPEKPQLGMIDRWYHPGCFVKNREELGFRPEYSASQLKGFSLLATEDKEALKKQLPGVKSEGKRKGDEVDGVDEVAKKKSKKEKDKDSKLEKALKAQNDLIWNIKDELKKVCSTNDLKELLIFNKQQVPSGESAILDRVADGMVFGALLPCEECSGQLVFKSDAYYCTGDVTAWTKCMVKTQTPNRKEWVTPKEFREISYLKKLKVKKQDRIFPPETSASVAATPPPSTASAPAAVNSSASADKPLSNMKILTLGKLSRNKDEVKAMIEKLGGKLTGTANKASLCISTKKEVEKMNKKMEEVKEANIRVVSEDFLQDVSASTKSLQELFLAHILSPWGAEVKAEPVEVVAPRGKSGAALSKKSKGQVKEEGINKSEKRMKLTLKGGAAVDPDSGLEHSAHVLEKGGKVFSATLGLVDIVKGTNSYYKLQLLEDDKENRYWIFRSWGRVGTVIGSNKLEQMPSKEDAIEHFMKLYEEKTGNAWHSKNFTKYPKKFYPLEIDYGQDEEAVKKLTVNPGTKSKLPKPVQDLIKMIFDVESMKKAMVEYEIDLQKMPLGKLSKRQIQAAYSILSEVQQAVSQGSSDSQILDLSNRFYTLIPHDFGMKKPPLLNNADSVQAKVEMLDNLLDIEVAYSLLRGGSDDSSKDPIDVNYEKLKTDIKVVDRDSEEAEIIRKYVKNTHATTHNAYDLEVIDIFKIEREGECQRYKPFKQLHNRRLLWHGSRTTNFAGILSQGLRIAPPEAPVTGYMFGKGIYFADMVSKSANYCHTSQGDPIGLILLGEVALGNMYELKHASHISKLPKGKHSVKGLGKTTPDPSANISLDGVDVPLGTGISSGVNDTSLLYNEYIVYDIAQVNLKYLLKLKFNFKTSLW
T3 sequence (P09874 216-1014, stated change not applied): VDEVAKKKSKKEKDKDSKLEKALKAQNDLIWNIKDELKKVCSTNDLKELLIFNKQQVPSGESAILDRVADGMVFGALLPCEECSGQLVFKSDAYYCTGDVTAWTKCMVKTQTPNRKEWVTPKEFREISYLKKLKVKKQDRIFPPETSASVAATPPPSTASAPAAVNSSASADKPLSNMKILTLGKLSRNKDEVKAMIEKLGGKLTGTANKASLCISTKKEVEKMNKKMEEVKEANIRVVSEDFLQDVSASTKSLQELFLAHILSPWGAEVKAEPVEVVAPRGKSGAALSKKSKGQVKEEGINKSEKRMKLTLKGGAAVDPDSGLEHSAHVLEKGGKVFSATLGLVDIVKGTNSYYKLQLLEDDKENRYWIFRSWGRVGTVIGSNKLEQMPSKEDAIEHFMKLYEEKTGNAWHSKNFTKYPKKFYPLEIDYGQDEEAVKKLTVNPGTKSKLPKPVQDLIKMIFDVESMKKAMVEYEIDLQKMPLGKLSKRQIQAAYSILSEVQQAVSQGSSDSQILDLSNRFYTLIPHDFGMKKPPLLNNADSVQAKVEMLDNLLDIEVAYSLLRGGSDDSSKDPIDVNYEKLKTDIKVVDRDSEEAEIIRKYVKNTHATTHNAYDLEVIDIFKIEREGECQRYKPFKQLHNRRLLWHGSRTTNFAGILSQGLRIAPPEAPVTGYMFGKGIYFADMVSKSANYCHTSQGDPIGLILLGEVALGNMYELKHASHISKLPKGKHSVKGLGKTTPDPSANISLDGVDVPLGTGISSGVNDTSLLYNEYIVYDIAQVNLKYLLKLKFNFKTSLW

TAGGCACCGGCATCTTGAC (ssDNA) [19-mer ssDNA] was tested, and the binding signal (PARP1-ΔCAT [1]) was 15.7 ± 3.9 KDNA/KRNA, the binding signal (PARP1-FL [2]) was 25.3 ± 3 KDNA/KRNA and the binding signal (PARP1-ΔZn1ΔZn2 [3]) was 0.0153 ± 0.021 KDNA/KRNA.

CCGUACGCGGGUUUAAACGA (ssRNA) [20-mer ssRNA] gave a Ka (PARP1-ΔZn1ΔZn2 [4]) of 1.13e+06 M⁻¹, a Ka (PARP1-ΔCAT [5]) of 770000 M⁻¹ and a Ka (PARP1-FL [6]) of 2.43e+06 M⁻¹.

CGUACGCGGAAUAGUUUAAACUGU (ssRNA) [24-mer ssRNA] showed a Ka (PARP1-ΔCAT [7]) of 2.91e+06 M⁻¹, a Ka (PARP1-FL [8]) of 2.88e+06 M⁻¹ and a Ka (PARP1-ΔZn1ΔZn2 [9]) of 1.91e+06 M⁻¹.
